Laboratory results as given in paper PMC5503505 (Nature structural & molecular biology, 2017).

B1: Mcm7 (natural protein)
chain: MSAALPSIQLPVDYNNLFNEITDFLVTFKQDTLSSDATRNENEDENLDAENIEQHLLEKGPKYMAMLQKVANRELNSVIIDLDDILQYQNEKFLQGTQADDLVSAIQQNANHFTELFCRAIDNNMPLPTKEIDYKDDVLDVILNQRRLRNERMLSDRTNEIRSENLMDTTMDPPSSMNDALREVVEDETELFPPNLTRRYFLYFKPLSQNCARRYRKKAISSKPLSVRQIKGDFLGQLITVRGIITRVSDVKPAVEVIAYTCDQCGYEVFQEVNSRTFTPLSECTSEECSQNQTKGQLFMSTRASKFSAFQECKIQELSQQVPVGHIPRSLNIHVNGTLVRSLSPGDIVDVTGIFLPAPYTGFKALKAGLLTETYLEAQFVRQHKKKFASFSLTSDVEERVMELITSGDVYNRLAKSIAPEIYGNLDVKKALLLLLVGGVDKRVGDGMKIRGDINVCLMGDPGVAKSQLLKAICKISPRGVYTTGKGSSGVGLTAAVMKDPVTDEMILEGGALVLADNGICCIDEFDKMDESDRTAIHEVMEQQTISISKAGINTTLNARTSILAAANPLYGRYNPRLSPLDNINLPAALLSRFDILFLMLDIPSRDDDEKLAEHVTYVHMHNKQPDLDFTPVEPSKMREYIAYAKTKRPVMSEAVNDYVVQAYIRLRQDSKREMDSKFSFGQATPRTLLGIIRLSQALAKLRLADMVDIDDVEEALRLVRVSKESLYQETNKSKEDESPTTKIFTIIKKMLQETGKNTLSYENIVKTVRLRGFTMLQLSNCIQEYSYLNVWHLINEGNTLKFVDDGTMDTDQEDSLVSTPKLAPQTTASANVSAQDSDIDLQDA
B2: Cdt1 (natural protein)
chain: MSGTANSRRKEVLRVPVIDLNRVSDEEQLLPVVRAILLQHDTFLLKNYANKAVLDALLAGLTTKDLPDTSQGFDANFTGTLPLEDDVWLEQYIFDTDPQLRFDRKCRNESLCSIYSRLFKLGLFFAQLCVKSVVSSAELQDCISTSHYATKLTRYFNDNGSTHDGADAGATVLPTGDDFQYLFERDYVTFLPTGVLTIFPCAKAIRYKPSTMATTDNSWVSIDEPDCLLFHTGTLLARWSQGMHTTSPLQIDPRANIVSLTIWPPLTTPISSKGEGTIANHLLEQQIKAFPKVAQQYYPRELSILRLQDAMKFVKELFTVCETVLSLNALSRSTGVPPELHVLLPQISSMMKRKIVQDDILKLLTIWSDAYVVELNSRGELTMNLPKRDNLTTLTNKSRTLAFVERAESWYQQVIASKDEIMTDVPAFKINKRRSSSNSKTVLSSKVQTKSSNANALNNSRYLANSKENFMYKEKMPDSQANLMDRLRERERRSAALLSQRQKRYQQFLAMKMTQVFDILFSLTRGQPYTETYLSSLIVDSLQDSNNPIGTKEASEILAGLQGILPMDISVHQVDGGLKVYRWNSLDKNRFSKLLQIHKSKQQD
B3: Orc4 (natural protein)
chain: MTISEARLSPQVNLLPIKRHSNEEVEETAAILKKRTIDNEKCKDSDPGFGSLQRRLLQQLYGTLPTDEKIIFTYLQDCQQEIDRIIKQSIIQKESHSVILVGPRQSYKTYLLDYELSLLQQSYKEQFITIRLNGFIHSEQTAINGIATQLEQQLQKIHGSEEKIDDTSLETISSGSLTEVFEKILLLLDSTTKTRNEDSGEVDRESITKITVVFIFDEIDTFAGPVRQTLLYNLFDMVEHSRVPVCIFGCTTKLNILEYLEKRVKSRFSQRVIYMPQIQNLDDMVDAVRNLLTVRSEISPWVSQWNETLEKELSDPRSNLNRHIRMNFETFRSLPTLKNSIIPLVATSKNFGSLCTAIKSCSFLDIYNKNQLSNNLTGRLQSLSDLELAILISAARVALRAKDGSFNFNLAYAEYEKMIKAINSRIPTVAPTTNVGTGQSTFSIDNTIKLWLKKDVKNVWENLVQLDFFTEKSAVGLRDNATAAFYASNYQFQGTMIPFDLRSYQMQIILQELRRIIPKSNMYYSWTQL
B4: Orc1 (natural protein)
chain: MAKTLKDLQGWEIITTDEQGNIIDGGQKRLRRRGAKTEHYLKRSSDGIKLGRGDSVVMHNEAAGTYSVYMIQELRLNTLNNVVELWALTYLRWFEVNPLAHYRQFNPDANILNRPLNYYNKLFSETANKNELYLTAELAELQLFNFIRVANVMDGSKWEVLKGNVDPERDFTVRYICEPTGEKFVDINIEDVKAYIKKVEPREAQEYLKDLTLPSKKKEIKRGPQKKDKATQTAQISDAETRATDITDNEDGNEDESSDYESPSDIDVSEDMDSGEISADELEEEEDEEEDEDEEEKEARHTNSPRKRGRKIKLGKDDIDASVQPPPKKRGRKPKDPSKPRQMLLISSCRANNTPVIRKFTKKNVARAKKKYTPFSKRFKSIAAIPDLTSLPEFYGNSSELMASRFENKLKTTQKHQIVETIFSKVKKQLNSSYVKEEILKSANFQDYLPARENEFASIYLSAYSAIESDSATTIYVAGTPGVGKTLTVREVVKELLSSSAQREIPDFLYVEINGLKMVKPTDCYETLWNKVSGERLTWAASMESLEFYFKRVPKNKKKTIVVLLDELDAMVTKSQDIMYNFFNWTTYENAKLIVIAVANTMDLPERQLGNKITSRIGFTRIMFTGYTHEELKNIIDLRLKGLNDSFFYVDTKTGNAILIDAAGNDTTVKQTLPEDVRKVRLRMSADAIEIASRKVASVSGDARRALKVCKRAAEIAEKHYMAKHGYGYDGKTVIEDENEEQIYDDEDKDLIESNKAKDDNDDDDDNDGVQTVHITHVMKALNETLNSHVITFMTRLSFTAKLFIYALLNLMKKNGSQEQELGDIVDEIKLLIEVNGSNKFVMEIAKTLFQQGSDNISEQLRIISWDFVLNQLLDAGILFKQTMKNDRICCVKLNISVEEAKRAMNEDETLRNL

Tests used:
Assay in all cases: cryo-EM structure
Mcm4 = target: T1, Mcm4 (S. cerevisiae, UniProt P30665 1-933)
T1 sequence: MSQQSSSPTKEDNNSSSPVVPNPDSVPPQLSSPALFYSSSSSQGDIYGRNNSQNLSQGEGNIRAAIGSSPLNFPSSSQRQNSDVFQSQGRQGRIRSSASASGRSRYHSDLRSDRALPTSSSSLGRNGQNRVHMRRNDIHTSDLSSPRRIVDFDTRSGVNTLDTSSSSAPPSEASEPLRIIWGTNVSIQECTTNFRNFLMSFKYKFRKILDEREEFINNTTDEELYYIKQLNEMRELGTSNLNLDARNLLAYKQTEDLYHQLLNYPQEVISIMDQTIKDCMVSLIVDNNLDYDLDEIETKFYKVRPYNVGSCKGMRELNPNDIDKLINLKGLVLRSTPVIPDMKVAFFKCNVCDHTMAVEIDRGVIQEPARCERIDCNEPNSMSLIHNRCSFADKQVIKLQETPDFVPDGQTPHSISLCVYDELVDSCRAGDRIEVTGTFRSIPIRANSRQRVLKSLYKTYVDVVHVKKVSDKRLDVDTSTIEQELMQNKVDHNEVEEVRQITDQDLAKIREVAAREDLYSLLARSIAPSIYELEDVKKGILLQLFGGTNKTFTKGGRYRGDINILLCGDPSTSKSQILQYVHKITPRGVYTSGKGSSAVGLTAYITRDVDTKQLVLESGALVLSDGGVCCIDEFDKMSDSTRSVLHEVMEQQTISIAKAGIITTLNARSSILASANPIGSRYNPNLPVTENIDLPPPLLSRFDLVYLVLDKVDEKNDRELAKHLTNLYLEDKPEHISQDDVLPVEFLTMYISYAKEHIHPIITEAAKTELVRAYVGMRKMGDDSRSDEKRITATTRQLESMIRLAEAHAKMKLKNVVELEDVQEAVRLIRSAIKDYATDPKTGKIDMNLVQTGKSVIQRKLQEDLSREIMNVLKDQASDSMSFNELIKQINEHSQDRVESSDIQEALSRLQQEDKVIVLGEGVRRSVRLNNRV

Mcm3 = Mcm3 (S. cerevisiae, UniProt P24279 1-971)
Sequence of Mcm3 (P24279 whole entry): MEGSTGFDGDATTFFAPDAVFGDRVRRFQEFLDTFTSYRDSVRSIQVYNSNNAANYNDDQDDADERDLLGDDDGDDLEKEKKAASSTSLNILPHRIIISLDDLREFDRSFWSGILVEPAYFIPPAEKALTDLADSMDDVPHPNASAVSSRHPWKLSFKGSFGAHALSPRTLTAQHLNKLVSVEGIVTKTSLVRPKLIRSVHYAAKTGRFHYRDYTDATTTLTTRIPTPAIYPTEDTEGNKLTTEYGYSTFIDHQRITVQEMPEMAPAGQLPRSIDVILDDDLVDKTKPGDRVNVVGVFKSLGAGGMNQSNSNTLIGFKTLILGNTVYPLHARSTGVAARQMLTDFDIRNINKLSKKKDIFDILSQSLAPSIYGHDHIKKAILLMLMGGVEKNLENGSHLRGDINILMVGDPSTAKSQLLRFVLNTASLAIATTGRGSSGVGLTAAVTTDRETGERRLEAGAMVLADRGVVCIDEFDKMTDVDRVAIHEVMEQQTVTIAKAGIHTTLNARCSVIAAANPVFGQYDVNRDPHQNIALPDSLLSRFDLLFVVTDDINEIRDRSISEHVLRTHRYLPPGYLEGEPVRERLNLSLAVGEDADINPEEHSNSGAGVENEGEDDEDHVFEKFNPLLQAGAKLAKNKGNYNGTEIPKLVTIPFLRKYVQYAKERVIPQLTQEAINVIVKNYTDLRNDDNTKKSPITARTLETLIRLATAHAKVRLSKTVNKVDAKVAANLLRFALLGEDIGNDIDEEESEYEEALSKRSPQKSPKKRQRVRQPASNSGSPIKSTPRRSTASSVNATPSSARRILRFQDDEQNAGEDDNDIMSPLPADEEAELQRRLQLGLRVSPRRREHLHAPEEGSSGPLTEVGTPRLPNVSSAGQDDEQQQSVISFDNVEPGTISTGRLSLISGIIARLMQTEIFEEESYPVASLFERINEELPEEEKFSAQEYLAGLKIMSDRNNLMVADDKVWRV

Mcm6 = Mcm6 (S. cerevisiae, UniProt P53091 1-1017)
Sequence of Mcm6 (P53091 whole entry): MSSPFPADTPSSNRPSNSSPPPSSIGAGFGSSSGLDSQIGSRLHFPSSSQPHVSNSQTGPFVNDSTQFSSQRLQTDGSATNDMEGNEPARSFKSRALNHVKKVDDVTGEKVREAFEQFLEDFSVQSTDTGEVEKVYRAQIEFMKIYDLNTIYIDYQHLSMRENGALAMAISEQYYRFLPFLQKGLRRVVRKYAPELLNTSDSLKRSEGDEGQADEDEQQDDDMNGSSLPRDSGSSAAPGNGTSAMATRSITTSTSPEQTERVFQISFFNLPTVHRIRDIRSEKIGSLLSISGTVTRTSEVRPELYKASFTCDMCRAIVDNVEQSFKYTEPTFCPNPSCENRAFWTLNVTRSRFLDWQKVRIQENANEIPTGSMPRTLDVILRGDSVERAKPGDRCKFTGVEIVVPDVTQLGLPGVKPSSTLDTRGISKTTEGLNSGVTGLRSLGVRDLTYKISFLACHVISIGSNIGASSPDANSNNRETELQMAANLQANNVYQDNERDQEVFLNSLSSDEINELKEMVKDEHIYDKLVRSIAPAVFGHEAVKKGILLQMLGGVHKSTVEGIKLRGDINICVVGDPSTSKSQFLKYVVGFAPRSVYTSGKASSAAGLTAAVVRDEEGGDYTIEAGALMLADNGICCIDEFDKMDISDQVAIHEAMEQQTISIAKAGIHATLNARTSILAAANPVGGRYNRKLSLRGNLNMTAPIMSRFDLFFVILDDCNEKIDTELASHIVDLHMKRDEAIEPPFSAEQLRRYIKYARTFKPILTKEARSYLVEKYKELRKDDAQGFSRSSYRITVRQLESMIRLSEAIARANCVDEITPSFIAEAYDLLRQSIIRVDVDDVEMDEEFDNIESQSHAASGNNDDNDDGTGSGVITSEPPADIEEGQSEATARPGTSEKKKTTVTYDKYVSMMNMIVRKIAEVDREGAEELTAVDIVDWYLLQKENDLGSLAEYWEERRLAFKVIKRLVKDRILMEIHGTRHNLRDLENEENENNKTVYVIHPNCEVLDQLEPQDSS

Cdt1 = target: B2
Orc1 = target: B4

Binder	binding result (Mcm4)	binding result (Mcm3)	binding result (Mcm6)	binding result (Cdt1)	binding result (Orc1)
B1	binds	binds	–	–	–
B2	–	–	binds	–	–
B3	–	–	binds	binds	binds
B4	binds	–	–	–	–
